Results: the supplement of paper PMC11780869

Test system: Bacillus subtilis
Experiment: cleaved RNA product abundance (RNA/gDNA barcode ratio) relative to median wild-type variant (ratio to wild type); higher = more accumulation of the downstream cleavage product
Conditions: cleavage site: cggR-gapA (positions -7 to +36 mutated)
Method in brief: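 Reporter mRNAs (truncated aprE or tetM) carrying barcoded, mutagenized RNase Y cleavage-site windows were made from oligos with a 9% error rate and integrated into the B. subtilis chromosome. Cultures grew in LB at 37°C from OD600 0.0003 to 0.3. Cleaved RNA was gel-selected, reverse transcribed and barcode-sequenced alongside genomic DNA barcodes, with UMI collapsing. Cleaved product abundance is the RNA:gDNA barcode ratio per variant, scaled to the median wild-type variant.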

[1] = experiment (reporter, strain, medium): exp 4a: truncated aprE reporter, strain BJT201 with 2% xylose (RNase J1 expressed)
[2] = experiment (reporter, strain, medium): exp 2b: truncated aprE reporter, strain BJT200
[3] = experiment (reporter, strain, medium): exp 6: tetM reporter, strain 168

Sequence | cleaved RNA product abundance [1] | cleaved RNA product abundance [2] | cleaved RNA product abundance [3]
ACAGACGAAGGAGCCGCAAAGAAGTTATTAAGGGATGAATGATCCCTAAATATAAATATCTCTCACTTATTTAAA | 0.488 |  | 
ACAGACGAAGGAGCCGCAAAGAAGTTATTAAGGGATGAATGATCCCTCAAAATAAATATCTCTCACTTATTTAAA | 0.149 | 0.14 | 
ACAGACGAAGGAGCCGCAAAGAAGTTATTAAGGGATGAATGATCCCTCAATATAAAAATCTCTCACTTATTTAAA | 0.651 |  | 
ACAGACGAAGGAGCCGCAAAGAAGTTATTAAGGGATGAATGATCCCTCAATATAAATATCTCTCACTTATTTAAA | 0.699 | 0.466 | 0.63
ACAGACGAAGGAGCCGCAAAGAAGTTATTAAGGGATGAATGATCCCTCAATCTAAATATCTCTCACTTATTTAAA | 0.0934 |  | 
ACAGACGAAGGAGCCGCAAAGAAGTTATTAAGGGATGAATGATCCCTCCATATAAATATCTCTCACTTATTTAAA |  | 0.123 | 
ACAGACGAAGGAGCCGCAAAGAAGTTATTAAGGGATGAATGATCCCTGAATATAAATATCTCTCACTTATTTAAA | 0.383 |  | 
ACAGACGAAGGAGCCGCAAAGAAGTTATTAAGGGATGAATGATCCTTCAATATAAATATCTCTCACTTATTTAAA | 0.258 |  | 
ACAGACGAAGGAGCCGCAAAGAAGTTATTAAGGGATGAATTAACCCTCAATATAAATATCTCTCACTTATTTAAA | 0.492 |  | 
ACAGACGAAGGAGCCGCAAAGAAGTTATTAAGGGATGAATTATACCTCAATATAAATATCTCTCACTTATTTAAA | 0.162 | 0.139 | 
ACAGACGAAGGAGCCGCAAAGAAGTTATTAAGGGATGAATTATCACTCAATATAAATATCTCTCACTTATTTAAA | 0.178 |  | 
ACAGACGAAGGAGCCGCAAAGAAGTTATTAAGGGATGAATTATCCATCAATATAAATATCTCTCACTTATTTAAA | 0.144 | 0.163 | 
ACAGACGAAGGAGCCGCAAAGAAGTTATTAAGGGATGAATTATCCCACAATATAAATATCTCTCACTTATTTAAA | 0.319 |  | 
ACAGACGAAGGAGCCGCAAAGAAGTTATTAAGGGATGAATTATCCCTAAATATAAATATCTCTCACTTATTTAAA | 0.433 | 0.399 | 
ACAGACGAAGGAGCCGCAAAGAAGTTATTAAGGGATGAATTATCCCTCAACATAAATATCTCTCACTTATTTAAA | 0.284 | 0.179 | 
ACAGACGAAGGAGCCGCAAAGAAGTTATTAAGGGATGAATTATCCCTCAATATAAAAATCTCTCACTTATTTAAA | 0.966 |  | 
ACAGACGAAGGAGCCGCAAAGAAGTTATTAAGGGATGAATTATCCCTCAATATAAATACCTCTCACTTATTTAAA |  | 0.469 | 
ACAGACGAAGGAGCCGCAAAGAAGTTATTAAGGGATGAATTATCCCTCAATATAAATATCTCTCACTTATTTAAA | 0.845 | 0.687 | 0.559
ACAGACGAAGGAGCCGCAAAGAAGTTATTAAGGGATGAATTATCCCTCAATATACATATCTCTCACTTATTTAAA | 0.442 |  | 
ACAGACGAAGGAGCCGCAAAGAAGTTATTAAGGGATGAATTATCCCTCAATATATATATCTCTCACTTATTTAAA | 0.616 |  | 

Sequence | cleaved RNA product abundance [1] | cleaved RNA product abundance [2] | cleaved RNA product abundance [3]
ACAGACGAAGGAGCCGCAAAGAAGTTATTAAGGGATGAATTATCCCTCACTATAAATATCTCTCACTTATTTAAA | 0.208 |  | 
ACAGACGAAGGAGCCGCAAAGAAGTTATTAAGGGATGAATTATCCCTCATTATAAATATCTCTCACTTATTTAAA | 0.32 |  | 
ACAGACGAAGGAGCCGCAAAGAAGTTATTAAGGGATGAATTATCCCTCTATATAAATATCTCTCACTTATTTAAA | 0.3 |  | 
ACAGACGAAGGAGCCGCAAAGAAGTTATTAAGGGATGAATTATCCCTGAATATAAATATCTCTCACTTATTTAAA |  | 0.396 | 
ACAGACGAAGGAGCCGCAAAGAAGTTATTAAGGGATGAATTATCCCTTAATATAAATATCTCTCACTTATTTAAA | 0.438 |  | 
ACAGACGAAGGAGCCGCAAAGAAGTTATTAAGGGATGAATTATCCTTCAATATAAATATCTCTCACTTATTTAAA | 0.284 | 0.232 | 
ACAGACGAAGGAGCCGCAAAGAAGTTATTAAGGGATGAATTATCTCTCAATATAAATATCTCTCACTTATTTAAA | 0.37 | 0.318 | 
ACAGACGAAGGAGCCGCAAAGAAGTTATTAAGGGATGAATTATTCCTCAATATAAATATCTCTCACTTATTTAAA | 0.215 |  | 
ACAGACGAAGGAGCCGCAAAGAAGTTATTAAGGGATGAATTTTCCCTCAATATAAATATCTCTCACTTATTTAAA | 0.73 |  | 
ACAGACGAAGGAGCCGCAAAGAAGTTATTAAGGGATGACCAATCCCTCAATATAAATATCTCTCACTTATTTAAA | 0.749 |  | 
ACAGACGAAGGAGCCGCAAAGAAGTTATTAAGGGATGACTAAACCCTCAATATAAATATCTCTCACTTATTTAAA | 0.303 | 0.197 | 
ACAGACGAAGGAGCCGCAAAGAAGTTATTAAGGGATGACTAATACCTCAATATAAATATCTCTCACTTATTTAAA | 0.0872 |  | 
ACAGACGAAGGAGCCGCAAAGAAGTTATTAAGGGATGACTAATCCATCAATATAAATATCTCTCACTTATTTAAA | 0.154 | 0.112 | 
ACAGACGAAGGAGCCGCAAAGAAGTTATTAAGGGATGACTAATCCCACAATATAAATATCTCTCACTTATTTAAA | 0.197 | 0.157 | 
ACAGACGAAGGAGCCGCAAAGAAGTTATTAAGGGATGACTAATCCCTAAATATAAATATCTCTCACTTATTTAAA | 0.359 |  | 
ACAGACGAAGGAGCCGCAAAGAAGTTATTAAGGGATGACTAATCCCTCAAAATAAATATCTCTCACTTATTTAAA |  | 0.192 | 
ACAGACGAAGGAGCCGCAAAGAAGTTATTAAGGGATGACTAATCCCTCAAGATAAATATCTCTCACTTATTTAAA | 0.247 |  | 
ACAGACGAAGGAGCCGCAAAGAAGTTATTAAGGGATGACTAATCCCTCAATATAAATATCTCTCACTTATTTAAA | 0.679 | 0.603 | 0.978
ACAGACGAAGGAGCCGCAAAGAAGTTATTAAGGGATGACTAATCCCTCAATATAATTATCTCTCACTTATTTAAA | 0.282 |  | 
ACAGACGAAGGAGCCGCAAAGAAGTTATTAAGGGATGACTAATCCCTCAATATATATATCTCTCACTTATTTAAA |  | 0.293 | 

Sequence | cleaved RNA product abundance [1] | cleaved RNA product abundance [2] | cleaved RNA product abundance [3]
ACAGACGAAGGAGCCGCAAAGAAGTTATTAAGGGATGACTAATCCCTCATTATAAATATCTCTCACTTATTTAAA | 0.208 | 0.155 | 
ACAGACGAAGGAGCCGCAAAGAAGTTATTAAGGGATGACTAATCCCTCTATATAAATATCTCTCACTTATTTAAA | 0.337 |  | 
ACAGACGAAGGAGCCGCAAAGAAGTTATTAAGGGATGACTAATCCGTCAATATAAATATCTCTCACTTATTTAAA | 0.213 |  | 
ACAGACGAAGGAGCCGCAAAGAAGTTATTAAGGGATGACTAATCCTTCAATATAAATATCTCTCACTTATTTAAA | 0.251 |  | 
ACAGACGAAGGAGCCGCAAAGAAGTTATTAAGGGATGACTAATTCCTCAATATAAATATCTCTCACTTATTTAAA | 0.314 |  | 
ACAGACGAAGGAGCCGCAAAGAAGTTATTAAGGGATGACTACTCCCTCAATATAAATATCTCTCACTTATTTAAA | 0.446 |  | 
ACAGACGAAGGAGCCGCAAAGAAGTTATTAAGGGATGACTATTCCCTCAATATAAATATCTCTCACTTATTTAAA | 0.804 |  | 
ACAGACGAAGGAGCCGCAAAGAAGTTATTAAGGGATGAGAAATCCCTCAATATAAATATCTCTCACTTATTTAAA | 0.604 |  | 
ACAGACGAAGGAGCCGCAAAGAAGTTATTAAGGGATGAGTAAACCCTCAATATAAATATCTCTCACTTATTTAAA | 0.35 |  | 
ACAGACGAAGGAGCCGCAAAGAAGTTATTAAGGGATGAGTAATCACTCAATATAAATATCTCTCACTTATTTAAA | 0.264 |  | 
ACAGACGAAGGAGCCGCAAAGAAGTTATTAAGGGATGAGTAATCCCTCAATATAAATATCTCTCACTTATTTAAA | 0.596 | 0.484 | 0.74
ACAGACGAAGGAGCCGCAAAGAAGTTATTAAGGGATGAGTAATCCCTCATTATAAATATCTCTCACTTATTTAAA | 0.185 |  | 
ACAGACGAAGGAGCCGCAAAGAAGTTATTAAGGGATGAGTAATCCCTCCATATAAATATCTCTCACTTATTTAAA | 0.164 |  | 
ACAGACGAAGGAGCCGCAAAGAAGTTATTAAGGGATGAGTAATCCCTTAATATAAATATCTCTCACTTATTTAAA | 0.601 |  | 
ACAGACGAAGGAGCCGCAAAGAAGTTATTAAGGGATGAGTAATCCTTCAATATAAATATCTCTCACTTATTTAAA | 0.346 |  | 
ACAGACGAAGGAGCCGCAAAGAAGTTATTAAGGGATGAGTAATTCCTCAATATAAATATCTCTCACTTATTTAAA | 0.452 |  | 
ACAGACGAAGGAGCCGCAAAGAAGTTATTAAGGGATGATAAATCCCTCAATATAAATATCTCTCACTTATTTAAA | 0.853 | 0.648 | 
ACAGACGAAGGAGCCGCAAAGAAGTTATTAAGGGATGATAATCCCTCAATATAAATATCTCTCACTTATTTAAAG | 0.861 |  | 
ACAGACGAAGGAGCCGCAAAGAAGTTATTAAGGGATGATGAATCCCTCAATATAAATATCTCTCACTTATTTAAA | 0.766 |  | 
ACAGACGAAGGAGCCGCAAAGAAGTTATTAAGGGATGATTAAACCCTCAATATAAATATCTCTCACTTATTTAAA | 0.362 |  | 
